Data as given in patent publication CN112500478A.

Target: 非洲猪瘟病毒(African swine fever Virus, ASFV)全病毒 / 灭活非洲猪瘟病毒抗原

B1: 抗非洲猪瘟病毒的ScFv抗体VH-VLλ6 (scFv)
scFv: MEVKLVESGGGLVQPGGSLRLSCVGSGVTVTSYTVSWVRQAPGKGLEWLAGNGSSSKTTVDSDSVRGRFFISRDNSQNTAYLQMNSLRTEDTARYYCVQTIDSDCTSRLWGPGVEVVVGGGGSGGMSQTVIQEPAMSVSPGGTVTLTCAFSSATVTISNYPGWYQQTPRQPPRQLIYGLSSRPTGVPSRFSGAISGNKATLTITGAQAEDEADYFCALYNAGSRYNYMFGGGTHLTVL
OD450nm: 1.15 OD450nm
